Test results from the nanobody polyreactivity screen of Harvey et al. (2022).

Assay: yeast display, Sf9 membrane polyspecificity reagent, FACS + sequencing; frameworks hold sequencing errors
In short: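 Sorting gates, low and high (top ~1%), were placed on anti-HA fluorescence to track expression and on streptavidin fluorescence to track reagent binding. A clone's polyreactivity label is taken from the gate it came out of. The reagent was 10% biotinylated, detergent-solubilized Sf9 membrane, applied for 1 hour at 4 °C to galactose-induced yeast display cells.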
In the case of “QVQLVESGGGIVQAGGSLRLSCAASGFIFRYAMGWYRPAPGKERELVAAISSSGGSTNYADSVKGRFTISRDNAKNTVYLQMNILKPEDSAVYYCAADQYYGGSWWYDYWGQGTQVSVSS”, the “polyreactivity (PSR sort gate)” value is reported as “high polyreactivity”.
In the case of “QVQLVESGGGIVQAGGSLRLSCAASGFIFSSYAMGWYRQAPGKERELVAAITVRAGRTYYADSVKGRFTISRDNAKKTVYLQMNSLKPEDTAVYYCNAVSTAVIGYEYDYWGQGTQVTVSS”, the “polyreactivity (PSR sort gate)” value is reported as “high polyreactivity”.
For “QVQLVESGGGIVQAGGSLRLSCAASGFIIRPYAMGWYRQAPGKERELVAAITGGGSTYYADSVKGRFTISRDNAKNTVYLQMNSLKPEDTAVYYCNADRRRRSGGFAGWHFQRNVYWGQGTQVTLSS”, the “polyreactivity (PSR sort gate)” value was “low polyreactivity”.
With “QVQLVESGGGIVQAGGSLRLSCAASGFILDYNAMGWYRQAPGKERELVATITGRGDRTYYADSVKGRFTISRDNAKNTVYLQMNSLKPEDTAVYDCAAGFDGSRHPGFDSWGQGTQVTVSS” the “polyreactivity (PSR sort gate)” value was “low polyreactivity”.
In the case of “QVQLVESGGGIVQAGGSLRLSCAASGFISSVNAMGWYRQAPGKDRELVAAISDSATSTYYADSVKGRFTISRDNAKNTVYLQMNSLKPEDTAVYYCDAYSHYVGYEYWGQGTQVTVSS”, the “polyreactivity (PSR sort gate)” value is reported as “high polyreactivity”.
For “QVQLVESGGGIVQAGGSLRLSCAASGFTFDPYAMGWYRQAPGKERELVAATSWSGGSTYYADSVKGRFTISRDNAKNTVYLQMNSLKPEDTAVYYCAAEWYNSAYYEYDYWGQGTQVTVSS”, the “polyreactivity (PSR sort gate)” value was “high polyreactivity”.
In the case of “QVQLVESGGGIVQAGGSLRLSCAASGFTFIYYAMGWYRQAPGKERELVAGISSGGRTSYADSVKGRFTISRDNAKNTVYFQMNSLKPEDTAVYYCATPVSRFRRTEYGYYYWGQGTQVSVSS”, the “polyreactivity (PSR sort gate)” value is reported as “high polyreactivity”.
In the case of “QVQLVESGGGIVQAGGSLRLSCAASGFTFRYNTMGWYRQAPGKERELVAAITSRGTSTYYADSVKGRFTISRDNAKNTVYLQMYSLKPEDTAVYYCNKVYFKGTTRLSVSVYKLEYWGQGTQVTVSS”, the “polyreactivity (PSR sort gate)” value is reported as “high polyreactivity”.
In the case of “QVQLVESGGGIVQAGGSLRLSCAASGGIFLGNAMVWYRQAPGKERELVAGITWSGGRTYYADSVKGRFTISRDNAKNTVYLQMNSLKPEDTAVYYCNKDTPGTRFYGIYSYDYWGQGTQVTVSS”, the “polyreactivity (PSR sort gate)” value is reported as “low polyreactivity”.
With “QVQLVESGGGIVQAGGSLRLSCAASGGIFYGYAMGWYRQAPGKERELVAAISSTGGRTYYADSVKGRFTISRDNAKNTVYLQMNSLKPEDTAVYYCAAEDFTRQFEYWGQGTQVTVSS” the “polyreactivity (PSR sort gate)” value was “low polyreactivity”.
For “QVQLVESGGGIVQAGGSLRLSCAASGGTFHYYAMGWYRQAPGKERELVAAINRSGDSTYYADSVKGRFTISRDNSKNTVYLQMNSLKPEDTAVYYCAVSYYGADGNPFPHDYWGQGTQVTVSS”, the “polyreactivity (PSR sort gate)” value was “low polyreactivity”.
With “QVQLVESGGGIVQAGGSLRLSCAASGIIFWNYTMGWYRQAPGKERELVAAISVSGGSTYYADSVKGRFTISRDNAKNTVYLQMNSLKPEDTAVYYCAAEWIYPSPHYEYDYWGQGTQVTVSS” the “polyreactivity (PSR sort gate)” value was “high polyreactivity”.
In the case of “QVQLVESGGGIVQAGGSLRLSCAASGITFTVYAMGWYRQAPGKERELVAAITSTGSTNYADSVKGRFTISRDNAKNTVYLQMISLKPEDTAVYYCAADRQITVYAYDYWGHGTQVTVSS”, the “polyreactivity (PSR sort gate)” value is reported as “low polyreactivity”.
In the case of “QVQLVESGGGIVQAGGSLRLSCAASGITSYFNAMGWYRQAPGKERELVAITWNGGSTYYADSVKGRFTISRDNAMNTVYLQMNSLKPEDTAVYYCAARYRRYNRKYDYWGQGTQVTVSS”, the “polyreactivity (PSR sort gate)” value is reported as “high polyreactivity”.
In the case of “QVQLVESGGGIVQAGGSLRLSCAASGRIFLTNAKGWYRQAPGKERELVATITASGGTTYYADSVKGRFTISRDNAKNTVYLQMNSLKTEDTAVYYCAKRYYLRGYGRYYYWGQGTQVTVSS”, the “polyreactivity (PSR sort gate)” value is reported as “high polyreactivity”.
With “QVQLVESGGGIVQAGGSLRLSCAASGRIFQLYGMGWYRQAPGKERECVAAISYGGGSTYYADSVKGRFTISRDIAKNTVYFKMNSLKPEDTAVYYCAAERRFYSLAKYQSMDYWGQGTQVTVSS” the “polyreactivity (PSR sort gate)” value was “low polyreactivity”.
For “QVQLVESGGGIVQAGGSLRLSCAASGRIFQRYTMGWYRQAPGKEREFVAAITYSGGSTHYADSVKGRFTISRDNAKNTVYLQMNSLKPEDTAVYYCNADRYYGRGYGYWGQGTQVTVSS”, the “polyreactivity (PSR sort gate)” value was “low polyreactivity”.
With “QVQLVESGGGIVQAGGSLRLSCAASGRIFSVNAMGWYRQAPGKERELVAAITGSGTITYYADSVKGRFTISRDNAKNSVYLQMNSLKPEDTAVYYCAARPVLRYYAGYYYWGQGTQVTVSS” the “polyreactivity (PSR sort gate)” value was “high polyreactivity”.
In the case of “QVQLVESGGGIVQAGGSLRLSCAASGRIFTRNAMGWYRQAPGKERELVAAISYSGGTTYYADSVKGRFTISRDNAKNTVYLQMNSLKPEDTAVYYCAALRPTQRYFTYDYWGQGTQVTVSS”, the “polyreactivity (PSR sort gate)” value is reported as “high polyreactivity”.
In the case of “QVQLVESGGGIVQAGGSLRLSCAASGRIIRYYTMGWYRQAPGKERELVAAIRQRGGSTYYADSVKGRFTISRDNAKNTVYLHMNSLKREDTAVYYCNAVRRTTYDYWGQGTQVTVSS”, the “polyreactivity (PSR sort gate)” value is reported as “high polyreactivity”.
With “QVQLVESGGGIVQAGGSLRLSCAASGRNFYYYAMGWYRQAPGKERELVAAISWSGGRTYYADSVKGRFTISRDNAKNTVYFQMNSLKPEDTAVYYSNAEPPRGYSVSSGGEMDYWGQGTEVTVSS” the “polyreactivity (PSR sort gate)” value was “low polyreactivity”.
For “QVQLVESGGGIVQAGGSLRLSCAASGRTFDSYAMGWYRQAPGKERELVAAITYSGGSTYYADSVKGRFTISRDNAKNTVYLQMNSLKPEDTAVYYCARDRFYYRLAGSKGRRKGDYWGQGTQVTVSS”, the “polyreactivity (PSR sort gate)” value was “high polyreactivity”.
For “QVQLVESGGGIVQAGGSLRLSCAASGRTFFLYTLGWYRQAPGKEREFVAAINYSGGRTYYADSVKGRFTISRDKAKNTVYLQMNSLKPEDTAVYYCAAYRGSYSYDYWGQGTQVTVSS”, the “polyreactivity (PSR sort gate)” value was “high polyreactivity”.
In the case of “QVQLVESGGGIVQAGGSLRLSCAASGRTFNHYAMGWYRQAPGKERELVAAITNGGNTYYADSVKGRFTISRDNAKNTVYLQMNSLKPEDTAVYYCAKLYTDAIVWSAYDYWGQGTQVTVSS”, the “polyreactivity (PSR sort gate)” value is reported as “low polyreactivity”.
In the case of “QVQLVESGGGIVQAGGSLRLSCAASGRTFRPYAMGWYRQAPGKERELVAAITSGGSTYYADSVKGRFTISRDNAKNTVYLQMNSLKPEDTAVYYCNAKYYYQPPYDYWGQGTQVTVSS”, the “polyreactivity (PSR sort gate)” value is reported as “low polyreactivity”.
With “QVQLVESGGGIVQAGGSLRLSCAASGRTFYAYTMGWYRQAPGKETELVAANSRTGGRTYYADSVKGRFTISRDNAKNTVYLQMNSLKPEDTAVYYCAAGSKPGIQFRSVYSAYRYYYCGQGTQVTVSS” the “polyreactivity (PSR sort gate)” value was “high polyreactivity”.
In the case of “QVQLVESGGGIVQAGGSLRLSCAASGRTFYYAMGWYRQAPGKERELVAAITSSSSTYYADSVKGRFTISRDNAKNTVYLQMNSLKPEDTAVYYCNSADDPYGSPSYGYDYWGQGTQVTVSS”, the “polyreactivity (PSR sort gate)” value is reported as “low polyreactivity”.
With “QVQLVESGGGIVQAGGSLRLSCAASGRTIPPYGMGWYRQAPGKERELVAAISKSSGSTNYADSVKGRVTISRDNAKNTVYLQMNSLKPEDTAVYYCTKEWSIGPTGIRAYVRVWYYYWGQGTQVTVSS” the “polyreactivity (PSR sort gate)” value was “low polyreactivity”.
In the case of “QVQLVESGGGIVQAGGSLRLSCAASGRTIPYHAMGWYRQAPGKERELDAAISYSGGRTYYADCVKGRFTISRDNAKNSVYLLMNSLKPDDTAVYYCNALGSGREDVYWGQGTQVTVSS”, the “polyreactivity (PSR sort gate)” value is reported as “high polyreactivity”.
For “QVQLVESGGGIVQAGGSLRLSCAASGRTLISYAMGWYRQAPGKERELVAAISWGGSSTYYADSVKWRFTISRDNAKNTVYLQRNSLKPEDTAVYYCNTVYYYWGKWRGTYDYWGLGTQVTVSS”, the “polyreactivity (PSR sort gate)” value was “high polyreactivity”.
For “QVQLVESGGGIVQAGGSLRLSCAASGSIFKHYAMGWYRQAPGKERELVATIDYLGGRTYYADSVKGRFTISRDNAKNTVYLQMNSLKPEDTAVYYCAASRYSGKIRGEDYWGQRTQVTVSS”, the “polyreactivity (PSR sort gate)” value was “low polyreactivity”.
In the case of “QVQLVESGGGIVQAGGSLRLSCAASGSIFKYYAMARYRQAPGKERELVASMSRVGSTNYADSVKGRFTISRDTAKNTVYLQMNSLKPEDTAVYYCNKRWLYYNLDYWGQGTQVTVSS”, the “polyreactivity (PSR sort gate)” value is reported as “high polyreactivity”.
With “QVQLVESGGGIVQAGGSLRLSCAASGSIFQWYAMGWYRQAPGKERELVAAISFNGGITYYADSVKGRFTISRDNANNTVYLQMNSLKPEDTAVYYCATEYRSASGDYDYWGQGTQVTVSS” the “polyreactivity (PSR sort gate)” value was “low polyreactivity”.
With “QVQLVESGGGIVQAGGSLRLSCAASGSIFSGYAMGWYRQAPGKERELVAAIDWSGGTTYYADSVKGRFTISRDNAKNTVYLQMKSLKPEDTAVYYCAAKYPWYLSKDTLYYWGQGTQVTVSS” the “polyreactivity (PSR sort gate)” value was “low polyreactivity”.
In the case of “QVQLVESGGGIVQAGGSLRLSCAASGSIFWVNVMGWYRQAPGKEREFVAAITRSGGSTYYADSVKGRFTISRDNAKNTVYLQMNSLKPEDTAVYYCNRRGRRGYDYWGQGTLVTVSS”, the “polyreactivity (PSR sort gate)” value is reported as “high polyreactivity”.
For “QVQLVESGGGIVQAGGSLRLSCAASGSILYFNAMGWYRQAPGKERELVAAISRTGSRTYYADSVKGRFTISRDNAKNTVYLQMNSLKPEDTAVYYCAAYNGITSHLRFDYWGQGTQVTVSS”, the “polyreactivity (PSR sort gate)” value was “high polyreactivity”.
With “QVQLVESGGGIVQAGGSLRLSCAASGSTFDVYAMGWYRQAPGKERELVAVINTSGTRTYYADSVKGRFTISRDNAKNTVYLQMNSLKPEDTAVYYCAVSYLSTLGRSRYDYWGQGTQVTVSS” the “polyreactivity (PSR sort gate)” value was “low polyreactivity”.
For “QVQLVESGGGIVQAGGSLRLSCAASGSTFFDNAIGWYRQAPGKERELVAAITRGGSKHYADSVMGRFTISRDNAKNTVYLQMNSVKPEDTAVYSCNAQRYRVPYDYWGQGTQVTVSS”, the “polyreactivity (PSR sort gate)” value was “low polyreactivity”.
For “QVQLVESGGGIVQAGGSLRLSCAASGSTFFDNAMGWYRQAPGKERDLVAAISLTDGITYDADSVKGRFTISRDNAKNTVYLQMNSLKPEDTAVYYCNAVYDWSLDQVWDYFEYEYWGQGSQVTVSS”, the “polyreactivity (PSR sort gate)” value was “high polyreactivity”.
In the case of “QVQLVESGGGIVQAGGSLRLSCAASGSTFSYNAMGWDRQAPGKERELVAAITSRGGSTRYADSVKGRFTISRDNAKNTVYLQMNSLKPEDTAVYYCARPYSYYPYSTVNYWGQGTQVTVSS”, the “polyreactivity (PSR sort gate)” value is reported as “high polyreactivity”.
In the case of “QVQLVESGGGIVQAGGSLRLSCAASGSTFYRYVMGWYRQAPGKERELVAAISWSGGSTYYADSVKGRFTISRDNAKNTVYLQMNSLKPEDTAVYYCAAVHKVGWSRHYDYWGQGTQVTVSS”, the “polyreactivity (PSR sort gate)” value is reported as “high polyreactivity”.
In the case of “QVQLVESGGGIVQAGGSLRLSCAASGSTIDYNAMGWYRQARGQERELVAAITSGGSTSYADSVKGRFTISRENAKNTVYLQMNSLKPEDTAGYYCAVKRYWLWWYDYWGQGTQVTVSS”, the “polyreactivity (PSR sort gate)” value is reported as “high polyreactivity”.
With “QVQLVESGGGIVQAGGSLRLSCAASGTFGYAMGWYRQAPGKERELVAAISYSGGSTYYADSVKGRFTISRDNAKNTVYLQMNSLKPEDTAVYYCAARTTLSYGYDYWGQGTQVTVSS” the “polyreactivity (PSR sort gate)” value was “high polyreactivity”.
